What was measured:
[1] = substrate: S clamp antigen from CSL451 GMP batch TC20-02-08 (sublot VS20200615A) (SARS-CoV-2) (UniProt P0DTC2); test: kinetics on CM5 chip: anti-mouse Ab, 30B8 captured, CSL451 Sclamp antigen in solution, 1:1 binding; MEAN ± SEM of the eight runs
[2] = substrate: S clamp antigen from CSL451 GMP batch TC20-02-08 (sublot VS20200615A) (SARS-CoV-2) (UniProt P0DTC2); test: kinetics on CM5 chip: anti-mouse Ab, 30B8 captured, CSL451 Sclamp antigen in solution, 1:1 binding; density 7 RU, table row 8
[3] = substrate: S clamp antigen from CSL451 GMP batch TC20-02-08 (sublot VS20200615A) (SARS-CoV-2) (UniProt P0DTC2); test: kinetics on CM5 chip: anti-mouse Ab, 30B8 captured, CSL451 Sclamp antigen in solution, 1:1 binding; density 20 RU, table row 4
[4] = substrate: S clamp antigen from CSL451 GMP batch TC20-02-08 (sublot VS20200615A) (SARS-CoV-2) (UniProt P0DTC2); test: kinetics on CM5 chip: anti-mouse Ab, 30B8 captured, CSL451 Sclamp antigen in solution, 1:1 binding; density 40 RU, table row 2
[5] = substrate: S clamp antigen from CSL451 GMP batch TC20-02-08 (sublot VS20200615A) (SARS-CoV-2) (UniProt P0DTC2); test: binding kinetics from sensorgrams (FIG. 6); instrument and format not given
[6] = substrate: S clamp antigen from CSL451 GMP batch TC20-02-08 (sublot VS20200615A) (SARS-CoV-2) (UniProt P0DTC2); test: kinetics on CM5 chip: anti-mouse Ab, 30B8 captured, CSL451 Sclamp antigen in solution, 1:1 binding; density 40 RU, table row 1
[7] = substrate: S clamp antigen from CSL451 GMP batch TC20-02-08 (sublot VS20200615A) (SARS-CoV-2) (UniProt P0DTC2); test: kinetics on CM5 chip: anti-mouse Ab, 30B8 captured, CSL451 Sclamp antigen in solution, 1:1 binding; density 7 RU, table row 7
[8] = substrate: S clamp antigen from CSL451 GMP batch TC20-02-08 (sublot VS20200615A) (SARS-CoV-2) (UniProt P0DTC2); test: kinetics on CM5 chip: anti-mouse Ab, 30B8 captured, CSL451 Sclamp antigen in solution, 1:1 binding; density 13 RU
[9] = substrate: S clamp antigen from CSL451 GMP batch TC20-02-08 (sublot VS20200615A) (SARS-CoV-2) (UniProt P0DTC2); test: homologous 30B8 capture/detection EIA; CSL451 DP held 1 h at room temperature (control), pre-treated with 0.125% Zwittergent 3 h at 37 C, antigen titrated
[10] = substrate: S clamp antigen from CSL451 GMP batch TC20-02-08 (sublot VS20200615A) (SARS-CoV-2) (UniProt P0DTC2); test: kinetics on CM5 chip: anti-mouse Ab, 30B8 captured, CSL451 Sclamp antigen in solution, 1:1 binding; density 13 RU, table row 5
[11] = substrate: S clamp antigen from CSL451 GMP batch TC20-02-08 (sublot VS20200615A) (SARS-CoV-2) (UniProt P0DTC2); test: kinetics on CM5 chip: anti-mouse Ab, 30B8 captured, CSL451 Sclamp antigen in solution, 1:1 binding; density 20 RU, table row 3

B1: antibody 30B8 (antibody, V domains shown)
VH: EVQLQQSGAELVKPGASVKLSCTASGFNIKDTYIHWVKQRPEQGLEWIGRIDPANGNTKYDPKFQGKATITADTSSNTAYLQLSSLTSEDTAVCYCAGSLYDYDGAPFAYWGQGTLVTVSA
VL: SIVMTQTPKFLLVSAGDRVTITCKASQSVTNDVTWYQQKPGQSPKLLIYYASNRYTGVPDRFTGSGYGTDFTFTISTVQAEDLAVYFCQQDYSSPWTFGGGTKLEIK
[1]
  Kd: 15.1 pM
[2]
  Kd: 13.1 pM
  koff: 3.06e-05 s⁻¹
  kon: 2.33e+06 M⁻¹ s⁻¹
[3]
  Kd: 15.2 pM
  koff: 3.68e-05 s⁻¹
  kon: 2.42e+06 M⁻¹ s⁻¹
[4]
  Kd: 13.8 pM
  koff: 3.25e-05 s⁻¹
  kon: 2.35e+06 M⁻¹ s⁻¹
[5]
  Kd: 15 pM
[6]
  Kd: 15.9 pM
  koff: 3.76e-05 s⁻¹
  kon: 2.36e+06 M⁻¹ s⁻¹
[7]
  Kd: 13 pM
  koff: 3.11e-05 s⁻¹
  kon: 2.39e+06 M⁻¹ s⁻¹
[8]
  Kd: 17.1 pM
  koff: 3.98e-05 s⁻¹
  kon: 2.33e+06 M⁻¹ s⁻¹
[9]
  EC50 (read off the curve): 0.7 µg/mL
[10]
  Kd: 17.1 pM
  koff: 3.96e-05 s⁻¹
  kon: 2.31e+06 M⁻¹ s⁻¹
[11]
  Kd: 15.5 pM
  koff: 3.66e-05 s⁻¹
  kon: 2.37e+06 M⁻¹ s⁻¹

Source: patent publication US20250244325A1
